Test results: patent US11851478

These binders were tested against Chikungunya virus (CHIKV), infectious virus of the focus reduction neutralization test (Chikungunya virus) (assay: cell-based or functional assay).

Row | Binder | IC50 FRNT* (ng/mL) against CHIKV
1 | CHKV-27 (antibody, V domains shown) VH: QVQLVQSGAEVKKPGASVKVSCKPSGYNFIDYAMHWVRQAPGQRLEWMGWINAANDNREYSQKFQGRVTLTRDTSATTAYMELSSLTFEDTAVYYCARDRGTMVRGVGGWFDPWGQGTLVTVSS VL: SYVLTQPPSVSVAPGETARITCGGNNIGSKSVHWYQQKPVQAPVVVVYDDSDRPSGIPERFSGSNSGNTATLTISRVEAGDEADYYCQVWDSSSNHPVFGGGTKVAVL | 17 ng/mL
2 | CHKV-31 (antibody, V domains shown) VH: EVQLVESGGGLVQPGGSLRLSCAASGFTFSNYAMSWVRQAPGKGLEWVSGISGSGRTTYYTDSVKGRFNISRDNTKNTLFLQMNSLRAEDTAVYYCVKDRAGWFGNYFDYWGQGTLVTVSS VL: DIQMTQSPSSLSASVGDRVTITCRASQGISNYLAWFQQKPGKAPKSLIYAASSLQSGVPSKFSGSRSGTNFTLTISSLQPEDFATYYCQQYNTYPPTFGQGTTVEIK | 684 ng/mL
3 | CHKV-24 (antibody, V domains shown) VH: QVQLVESGGGVVQPGKSLRLSCAASGFTFRNYGMHWVRQAPGKGLDWVALISYDGTHKYYKDSLKGRFTISRDNFQNTVDLQINSLRPDDTAVYYCAKELATSGVVEPLDSWGQGTLVTVSS VL: EIVLTQSPGTLSLSPGERATLSCRASQSLVSSYFGWYQQKRGQSPRLLIYAASTRATGIPDRFSGSGSGTDFTLTISRLEPEDFAVYYCQQYGNTPFTFGGGTKVEIK | 4 ng/mL
4 | CHKV-35 (antibody, V domains shown) VH: EVQLVESGGGLVPPGGSLRVSCAASGFTLRSYVMAWVRQAPGKGLEWVSGISGDGDHTYYADSVKGRFTISRDNSKNTLYLQMHSLRAEDTALYYCVKDWGIRGIYYPSGMDVWGQGTTVIVSS VL: SLELAQPPSVSVSPGQTARITCSGDGLPQAYAYWYQKKPGQAPVPLIYKDTERPSGIPERFSGSSSGTTVTLTISGVQAEDEADYYCQSADSIGTNVIFGGGTKLTVL | 11 ng/mL
5 | CHKV-29 (antibody, V domains shown) VH: EVQLVESGGVVVQPGGSLRLSCAASGFNFDDYTMHWVRQAPGKGLEWVSLITWDGLSTYYADSMKGRFTISRDNSKDSLYLQMDSLRTEDTAFYYCVRDMGPGAVHFYFYGMDVWGQGTLVTVSS VL: QSALTQPASVSGSPGQSITISCTGTSSDVGNYNLVSWYQQHPGKVPKLIIYEVSKRPSGISKRFSASKSGNTASLTISGLQAEDEADYYCCSYAGSSGVFGAGTKLTVL | 86 ng/mL
6 | CHKV-48 (antibody, V domains shown) VH: QVQLQESGPGLVKPSQTLSLTCAVSGGSISSGGYSWSWIRQPPGKGLEWIGYIYYSGSTYYNPSLKSRLTISMDTSKNHFSLKLSSVTAADTAVYYCATDYCSSTSCNTGAPVNWGQGTLVTVSS VL: DIQLTQSPSFLSASVGDRVTITCRASQGISSYLAWYQQKPGKAPKLLINAASTLQSGVPSRFSGSGSGTEFTLTISSLQPEDFATYYCQQFNAYPYTFGQGTKLEIK | 37 ng/mL
7 | CHKV-50 (antibody, V domains shown) VH: EVQLVESGGGLVQPGRSLRLSCAASGFTFDDYAMHWVRQAPGKGLEWVSGISWNSGFIGYADSVKGRFTISRDNAKNSLYLQMNSLRAEDTALYYCAKDLGRAYSSGWYLFDYWGQGTLVTVSS VL: SYVLTQPPSVSVAPGKTARITCGGNNIGSKSVHWYQQLPGQAPVLVVYDDSDRPSGIPERFSGSNSGYTATLIISRVEAGDEADYYCQVWDSTSDHACVFGPGTKVTVL | 2270 ng/mL
8 | CHKV-32 (antibody, V domains shown) VH: QVQLVQSGAEVKKPGASVKVSCKASGYTFTTFAMHWVRQAPGQGLECMGWINTANGYTKYSQKFQGRVTITSDTSASTASMELSSLTSKDTAVYYCARVQDFGHYEGGYGYWGQGTLVTVSS VL: QSVLTQPPSVSGAPGQRVIISCTGSSSNIGAGYDVHWYQQLPGTAPKLLIYGNSYRPSGVPDRFSGSRSGTSASLAITGLQAEDEADYYCQSHDSSLNDFNVFGSGTKVTVL | 81 ng/mL
9 | CHKV-53 (antibody, V domains shown) VH: QLQLQESGPGLVKPSETLSLTCTVSGGSISSTSHYWGWIRQPPGKGLEWIGNIYYSGSTYYKSSLKSRVAISVDTSKNQFSLKLSSVTAADTAVYFCARVVVGGYYDNRGYYRGPPTPLYYFDYWGQGTLVTVSS VL: DIQMTQSPSSVSASVGDRVTISCRASPGISTWLAWYQQKPGKAPKLLIYAVSSLQSGVPSRFSGSGSGTDFTLTISSLQPEDFATYYCQQANSLSWTFGQGTKVEIK | 319 ng/mL
